* marks the point of attachment. Acm = CC(=O)NC*

The conditions of series [1]: without salt at >20 μg/ml.
Series [2] deals with plasmid nucleic acid pRSVLuc. Description: Surface plasmon resonance (BIAcore) binding kinetics of peptides/conjugates to immobilized biotinylated plasmid DNA. The settings on record: apparent rate constant for dissociation; SPR, PBS, 25° C. As to the method: In the examples described below, SPR was detected using the BIAcore system. This machine contained an SPR detector and an integrated microfluidic cartridge which is engineered such that an analyte solution (cationic peptide) is continuously passed over the sensor chip. The sensor chip consists of a glass plate coated with a thin film of gold covered in a layer of carboyxymethyl dextran. The chip used has a dextran layer to which streptavidin is covalently attached. The chip is prepared for use by adding biotinylated nucleic acid which will be bound to the chip via the streptavidin-biotin interaction, and the same chip is used in a series of experiments.
As material binds to the immobilized nucleic acid molecule on the sensor chip, the SPR angle of plane polarized light shining on the surface of the chip is monitored by the detector. Changes in angle are defined as resonance units (RU) and data are collected every second. Background effects are detected and automatically subtracted by the use of a control flow cell in line with the nucleic acid flow cell.
A typical sensorgram has three phases: an association phase, an equilibrium phase and a dissociation phase (see FIG. 1). The rise in signal occurs as more peptide binds to the immobilized plasmid DNA until equilibrium conditions are reached. The height of the peak is directly proportional to the mass of peptide bound. If the flow continues with buffer containing no peptide, peptide begins to dissociate from the complex and the resonance signal is reduced. The sensorgram can be used to compute apparent rate constants for each of the three individual processes.
(1) dC/dt=ka [PF ] [Pmax -PB ]-kd [PB ]
Measurement of Binding Kinetics by Surface Plasmon Resonance
A 6 kilobase (kb) plasmid DNA (pRSVLuc) was biotinylated using photoactivatable biotin (Pierce and Warriner) as per manufacturer's instructions.
A sensor chip with immobilized streptavidin (SA5) was conditioned following manufacturer's instructions, i.e., three one-minute injections of 1 M NaCl: 50 mM NaOH followed by one 1 min injection of 0.5% SDS. Flow rate on the BlAcore sensing device was 20 μl per min, running buffer was phosphate buffered saline (PBS). Flow path was flow cells 1 and 2.
The flow path was switched to flow cell 2 only and the flow rate was reduced to 10 μl per minute. Biotinylated plasmid at a concentration of […] in 0.5M NaCl was injected for 3 mins.
Phosphate buffered saline was used as running buffer at a flow rate of 20 μl per minute. The flow path was over flow cells 1 and 2. Flow cell 1 was used as a reference cell. The experiments were carried out at a temperature of 25° C.
Peptides were injected at various concentrations for three minutes. The injection was followed by a 5 min dissociation phase before the injection port was washed. The sensor chip was regenerated by the injection of 2M NaCl for 1 min. If necessary, this injection was repeated to bring the response back down to baseline before the next peptide sample was injected.
The data was analysed using the methods described in the handbook (BIAevaluation 2.1. Software Handbook, Pharmacia Biosensor AB, Uppsala, Sweden).
Essentially the plots were evaluated as follows: The dissociation constant, kd, was determined first. A curve or family of curves (same NBC at different concentrations) were plotted as response (Y) versus time as Ln (Yo/Y) versus time. In the area where the Ln(Yo/Y) curve was linear, a fit of the default dissociation model [AB]=[A]+[B] was made. The association constant, ka, was then calculated by fitting the related association model on that part of the association curve where a plot of In(abs(dY/dt) versus time was linear. KD were approximated by dividing the calculated kd with the calculated ka.

As for “NH2-KPKAAKPKKPKKKRKVEKKSPKKAKKPAAC(Acm)-COOH (H-KPKAAKPKKPKKKRKVEKKSPKKAKKPAAC(Acm)-OH; SMILES CC(=O)NCSC[C@H](NC(=O)[C@H](C)NC(=O)[C@H](C)NC(=O)[C@@H]1CCCN1C(=O)[C@H](CCCCN)NC(=O)[C@H](CCCCN)NC(=O)[C@H](C)NC(=O)[C@H](CCCCN)NC(=O)[C@H](CCCCN)NC(=O)[C@@H]1CCCN1C(=O)[C@H](CO)NC(=O)[C@H](CCCCN)NC(=O)[C@H](CCCCN)NC(=O)[C@H](CCC(=O)O)NC(=O)[C@@H](NC(=O)[C@H](CCCCN)NC(=O)[C@H](CCCNC(=N)N)NC(=O)[C@H](CCCCN)NC(=O)[C@H](CCCCN)NC(=O)[C@H](CCCCN)NC(=O)[C@@H]1CCCN1C(=O)[C@H](CCCCN)NC(=O)[C@H](CCCCN)NC(=O)[C@@H]1CCCN1C(=O)[C@H](CCCCN)NC(=O)[C@H](C)NC(=O)[C@H](C)NC(=O)[C@H](CCCCN)NC(=O)[C@@H]1CCCN1C(=O)[C@@H](N)CCCCN)C(C)C)C(=O)O) [NBC2]”, in series [1], the solubility of complexes entry is given as “insoluble”. In addition, in series [2], the kd was 0.00938 s⁻¹.

Values taken from patent US6218112A, “Optimization of gene delivery and gene delivery system” (Cobra Therapeutics Limited, priority 1997, dated 2001).
